Data published in US20250326823A1.

Columns and labels:
Test in all cases: cell-based or functional assay
[1] = target: SARS-CoV-2 spike (S) protein, D614G (SARS-CoV-2) (UniProt P0DTC2)
[2] = target: SARS-CoV-2 spike (S) protein, variant XEC (SARS-CoV-2)
[3] = target: SARS-CoV-2 spike (S) protein, variant KP.3 (SARS-CoV-2)
[4] = target: SARS-CoV-2 spike (S) protein, variant LB.1 (SARS-CoV-2)
[5] = target: SARS-CoV-2 spike (S) protein, variant EG.5.1 (SARS-CoV-2)
[6] = target: SARS-CoV-2 spike (S) protein, variant KP.2.3 (SARS-CoV-2)
[7] = target: SARS-CoV-2 spike (S) protein, variant KP.2 (SARS-CoV-2)
[8] = target: SARS-CoV-2 spike (S) protein, variant CH.1.1 (SARS-CoV-2)
[9] = target: SARS-CoV-2 spike (S) protein, variant BA.2.86 (SARS-CoV-2)
[10] = target: SARS-CoV-2 spike (S) protein, variant JN.1 (SARS-CoV-2)
[11] = target: SARS-CoV-2 spike (S) protein, variant KP.3.1.1 (SARS-CoV-2)
[12] = target: SARS-CoV-2 spike (S) protein, variant KP.2 (SARS-CoV-2) (UniProt P0DTC2)
[13] = target: SARS-CoV-2 spike (S) protein, variant JN.1 (SARS-CoV-2) (UniProt P0DTC2)
[14] = target: SARS-CoV-2 spike (S) protein, variant BA.2.86 (SARS-CoV-2) (UniProt P0DTC2)
[15] = target: SARS-CoV-2 spike (S) protein, variant LB.1 (SARS-CoV-2) (UniProt P0DTC2)
[16] = target: SARS-CoV-2 spike (S) protein, variant CH.1.1 (SARS-CoV-2) (UniProt P0DTC2)
[17] = target: SARS-CoV-2 spike (S) protein, variant KP.3 (SARS-CoV-2) (UniProt P0DTC2)
[18] = target: SARS-CoV-2 spike (S) protein, variant KP.3.1.1 (SARS-CoV-2) (UniProt P0DTC2)
[19] = target: SARS-CoV-2 spike (S) protein, variant KP.2.3 (SARS-CoV-2) (UniProt P0DTC2)
[20] = target: SARS-CoV-2 spike (S) protein, variant XEC (SARS-CoV-2) (UniProt P0DTC2)
[21] = target: SARS-CoV-2 spike (S) protein, variant EG.5.1 (SARS-CoV-2) (UniProt P0DTC2)
[22] = target: SARS-CoV-2 spike (S) protein, BA.4/5 variant (SARS-CoV-2) (UniProt P0DTC2)
[23] = target: SARS-CoV-2 spike (S) protein, BA.2.75.2 variant (SARS-CoV-2) (UniProt P0DTC2)
[24] = target: SARS-CoV-2 spike (S) protein, BA.2.75 variant (SARS-CoV-2) (UniProt P0DTC2)
[25] = target: SARS-CoV-2 spike (S) protein, variant XBB (SARS-CoV-2) (UniProt P0DTC2)
[26] = target: SARS-CoV-2 spike (S) protein, variant BJ.1 (SARS-CoV-2) (UniProt P0DTC2)
[27] = target: SARS-CoV-2 spike (S) protein, BA.2.12.1 variant (SARS-CoV-2) (UniProt P0DTC2)
[28] = target: SARS-CoV-2 spike (S) protein, BA.1 variant (SARS-CoV-2) (UniProt P0DTC2)
[29] = target: SARS-CoV-2 spike (S) protein, BA.4.6 variant (SARS-CoV-2) (UniProt P0DTC2)
[30] = target: SARS-CoV-2 spike (S) protein, variant BQ.1.1 (SARS-CoV-2) (UniProt P0DTC2)

## VYD222 (antibody)
[1]
  neutralization IC50: 0.01 mg/L
[2]
  neutralization IC50: > 10 mg/L
[3]
  neutralization IC50: 1.32 mg/L
[4]
  neutralization IC50: 4.62 mg/L
[5]
  neutralization IC50: 0.899 mg/L
[6]
  neutralization IC50: 4.25 mg/L
[7]
  neutralization IC50: 0.684 mg/L
[8]
  neutralization IC50: 1.49 mg/L
[9]
  neutralization IC50: 2.13 mg/L
[10]
  neutralization IC50: 0.706 mg/L
[11]
  neutralization IC50: 4.05 mg/L
[12]
  neutralizing activity IC50 (µg/ml (caption; values match nM)): 4.56
  neutralizing activity IC80 (µg/ml (caption; values match nM)): 16.5
[13]
  neutralizing activity IC50 (µg/ml (caption; values match nM)): 4.71
  neutralizing activity IC80 (µg/ml (caption; values match nM)): 15.6
[14]
  neutralizing activity IC50 (µg/ml (caption; values match nM)): 14.2
  neutralizing activity IC80 (µg/ml (caption; values match nM)): 36.7
[15]
  neutralizing activity IC50 (µg/ml (caption; values match nM)): 30.8
  neutralizing activity IC80 (µg/ml (caption; values match nM)): > 67
[16]
  neutralizing activity IC50 (µg/ml (caption; values match nM)): 9.93
  neutralizing activity IC80 (µg/ml (caption; values match nM)): 30.4
[17]
  neutralizing activity IC50 (µg/ml (caption; values match nM)): 8.83
  neutralizing activity IC80 (µg/ml (caption; values match nM)): 39.5
[18]
  neutralizing activity IC50 (µg/ml (caption; values match nM)): 27.2
  neutralizing activity IC80 (µg/ml (caption; values match nM)): > 67
[19]
  neutralizing activity IC50 (µg/ml (caption; values match nM)): 28.4
  neutralizing activity IC80 (µg/ml (caption; values match nM)): 66.3
[20]
  neutralizing activity IC50 (µg/ml (caption; values match nM)): > 67
  neutralizing activity IC80 (µg/ml (caption; values match nM)): > 67
[21]
  neutralizing activity IC50 (µg/ml (caption; values match nM)): 6
  neutralizing activity IC80 (µg/ml (caption; values match nM)): 20.9

## LY-CoV-1404 (antibody)
[22]
  pseudotyped neutralization potency IC50: 0.0014 mg/L
  pseudotyped neutralization potency IC80: 0.003 mg/L
[23]
  pseudotyped neutralization potency IC50: 0.001 mg/L
  pseudotyped neutralization potency IC80: 0.005 mg/L
[24]
  pseudotyped neutralization potency IC50: 0.003 mg/L
  pseudotyped neutralization potency IC80: 0.015 mg/L
[25]
  pseudotyped neutralization potency IC50: > 10 mg/L
  pseudotyped neutralization potency IC80: > 10 mg/L
[26]
  pseudotyped neutralization potency IC50: > 10 mg/L
  pseudotyped neutralization potency IC80: > 10 mg/L
[27]
  pseudotyped neutralization potency IC50: 0.0013 mg/L
  pseudotyped neutralization potency IC80: 0.004 mg/L
[28]
  pseudotyped neutralization potency IC50: 0.002 mg/L
  pseudotyped neutralization potency IC80: 0.005 mg/L
[29]
  pseudotyped neutralization potency IC50: 0.0004 mg/L
  pseudotyped neutralization potency IC80: 0.0014 mg/L
[30]
  pseudotyped neutralization potency IC50: > 10 mg/L
  pseudotyped neutralization potency IC80: > 10 mg/L
